# Source: PMC12661985, “USP25 deubiquitinates cytosolic METTL3 to impede glioma proliferation via an m6A-independent pathway” (iScience, 2025)
# T1: His-USP25 (human, UniProt Q9UHP3 1-1055)
# T1 construct: USP25, human; also called pGEX-4T-1-His-USP25; source: E. coli BL21, purified
# T1 sequence (looked up): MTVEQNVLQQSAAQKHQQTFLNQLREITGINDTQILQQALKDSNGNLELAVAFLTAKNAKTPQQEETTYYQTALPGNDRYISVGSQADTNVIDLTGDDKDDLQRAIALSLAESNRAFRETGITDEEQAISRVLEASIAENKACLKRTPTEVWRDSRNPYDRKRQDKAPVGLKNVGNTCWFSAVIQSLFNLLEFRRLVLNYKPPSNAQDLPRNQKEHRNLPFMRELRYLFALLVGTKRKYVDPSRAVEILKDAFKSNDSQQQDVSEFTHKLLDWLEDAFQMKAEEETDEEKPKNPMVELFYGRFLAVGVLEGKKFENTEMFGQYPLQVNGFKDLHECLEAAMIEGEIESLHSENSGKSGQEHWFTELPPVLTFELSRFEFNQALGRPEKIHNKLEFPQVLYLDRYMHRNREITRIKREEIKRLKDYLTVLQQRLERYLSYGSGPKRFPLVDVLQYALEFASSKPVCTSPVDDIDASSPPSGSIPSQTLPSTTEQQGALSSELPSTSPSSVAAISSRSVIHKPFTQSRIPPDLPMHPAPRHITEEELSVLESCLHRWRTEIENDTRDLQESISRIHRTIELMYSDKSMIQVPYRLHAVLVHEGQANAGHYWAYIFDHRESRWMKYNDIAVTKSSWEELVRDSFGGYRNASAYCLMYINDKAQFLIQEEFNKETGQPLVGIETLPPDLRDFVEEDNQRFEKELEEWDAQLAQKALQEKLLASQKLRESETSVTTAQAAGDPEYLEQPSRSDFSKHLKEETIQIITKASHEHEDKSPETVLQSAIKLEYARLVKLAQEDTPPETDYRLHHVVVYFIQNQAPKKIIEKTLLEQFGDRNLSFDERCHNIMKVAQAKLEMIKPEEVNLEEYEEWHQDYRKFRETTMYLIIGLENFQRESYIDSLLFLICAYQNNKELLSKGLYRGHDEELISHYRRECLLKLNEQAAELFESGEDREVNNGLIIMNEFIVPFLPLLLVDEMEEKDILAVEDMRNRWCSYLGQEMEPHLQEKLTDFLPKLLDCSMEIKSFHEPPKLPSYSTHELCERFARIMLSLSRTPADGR
# B1: GST-METTL3-369-424 (domain or fragment, human, UniProt Q86U44 369-424, looked up)
# chain: FPPQWICCDIRYLDVSILGKFAVVMADPPWDIHMELPYGTLTDDEMRRLNIPVLQD
# notes: METTL3, human, Gate-loop 1; source: E. coli BL21, purified (glutathione Sepharose)
# B2: GST-USP25-166-718 (domain or fragment, human, UniProt Q9UHP3 166-718, looked up)
# chain: KAPVGLKNVGNTCWFSAVIQSLFNLLEFRRLVLNYKPPSNAQDLPRNQKEHRNLPFMRELRYLFALLVGTKRKYVDPSRAVEILKDAFKSNDSQQQDVSEFTHKLLDWLEDAFQMKAEEETDEEKPKNPMVELFYGRFLAVGVLEGKKFENTEMFGQYPLQVNGFKDLHECLEAAMIEGEIESLHSENSGKSGQEHWFTELPPVLTFELSRFEFNQALGRPEKIHNKLEFPQVLYLDRYMHRNREITRIKREEIKRLKDYLTVLQQRLERYLSYGSGPKRFPLVDVLQYALEFASSKPVCTSPVDDIDASSPPSGSIPSQTLPSTTEQQGALSSELPSTSPSSVAAISSRSVIHKPFTQSRIPPDLPMHPAPRHITEEELSVLESCLHRWRTEIENDTRDLQESISRIHRTIELMYSDKSMIQVPYRLHAVLVHEGQANAGHYWAYIFDHRESRWMKYNDIAVTKSSWEELVRDSFGGYRNASAYCLMYINDKAQFLIQEEFNKETGQPLVGIETLPPDLRDFVEEDNQRFEKELEEWDAQLAQKALQEKLLA
# notes: USP25, human, USP domain, residues 166-718; also called USP domain (aa 166-718) of USP25; pGEX-4T-1-GST-USP25-166-718; source: E. coli BL21, purified (glutathione Sepharose)
# B3: GST-METTL3-425-500 (domain or fragment, human, UniProt Q86U44 425-500, looked up)
# chain: DGFLFLWVTGRAMELGRECLNLWGYERVDEIIWVKTNQLQRIIRTGRTGHWLNHGKEHCLVGVKGNPQGFNQGLDC
# notes: METTL3, human, Interface loop, residues 425-500; also called Interface loop (aa 425-500) of METTL3; pGEX-4T-1-GST-METTL3-425-500; source: E. coli BL21, purified (glutathione Sepharose)
# How the values were obtained:
# [1] = biological target: T1, His-USP25; experiment: pull-down; about 10 ug GST fusion protein on glutathione Sepharose incubated with recombinant His-tagged protein, 2 h at 4 C, six washes with NETN buffer; blot with His antibodies; settings: both partners purified
# [2] = biological target: T2, His-METTL3 (human, UniProt Q86U44 1-580); experiment: as above; settings: both partners purified
# T2 construct: METTL3, human; also called pGEX-4T-1-His-METTL3; source: E. coli BL21, purified
# T2 sequence (Q86U44 whole entry): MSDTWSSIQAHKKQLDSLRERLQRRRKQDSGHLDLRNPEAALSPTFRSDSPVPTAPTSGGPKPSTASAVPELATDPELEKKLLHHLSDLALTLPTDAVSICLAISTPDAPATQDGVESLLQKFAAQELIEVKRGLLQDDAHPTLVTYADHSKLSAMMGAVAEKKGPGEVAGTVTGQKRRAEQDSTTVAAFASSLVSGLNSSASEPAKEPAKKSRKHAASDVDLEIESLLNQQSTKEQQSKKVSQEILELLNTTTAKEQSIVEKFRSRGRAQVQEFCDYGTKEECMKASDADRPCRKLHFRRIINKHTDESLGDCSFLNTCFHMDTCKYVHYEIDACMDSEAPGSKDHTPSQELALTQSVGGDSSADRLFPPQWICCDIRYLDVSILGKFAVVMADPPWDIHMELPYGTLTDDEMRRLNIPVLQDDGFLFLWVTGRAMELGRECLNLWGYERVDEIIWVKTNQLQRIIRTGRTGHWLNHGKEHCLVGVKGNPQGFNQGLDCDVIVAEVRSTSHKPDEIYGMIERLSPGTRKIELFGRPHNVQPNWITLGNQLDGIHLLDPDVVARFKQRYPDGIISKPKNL
binding result [1],binding result [2],Binder
binds,–,B1
–,binds,B2
binds,–,B3
